Reference: the Human Domainome abundance scans (Beltran et al. 2025)
± gives the uncertainty stated by the source.

B1: Gamma-crystallin D, residues 90 to 170; numbered along this chain, P07320 (parent)
chain: IRLYEREDYRGQMIEFTEDCSCLQDRFRFNEIHSLNVLEGSWVLYELSNYRGRQYLLMPGDYRRYQDWGATNARVGSLRRV

Variants of: B1
Assay: abundance fitness (aPCA) (normalised: wild type 0, dead -1); higher = more abundant; growth selection in yeast, the domain comes from the species named
Settings: Homo sapiens

Variant	abundance fitness
V43L	-0.1 ± 0.12
V43G	-0.026 ± 0.064
V43A	-0.059 ± 0.11
V43E	0.204 ± 0.13
V43T	-0.113 ± 0.17
V43K	-0.148 ± 0.13
V43N	-0.157 ± 0.28
V43M	0.079 ± 0.11
V43F	-0.125 ± 0.14
V43W	-0.028 ± 0.12
V43H	-0.129 ± 0.45
V43S	-0.029 ± 0.081
V43Y	-0.229 ± 0.18
V43R	0.006 ± 0.067
V43D	-0.017 ± 0.17
V43P	-0.844 ± 0.2
L47Y	-0.183 ± 0.19
L47P	-0.989 ± 0.18
L47V	-0.142 ± 0.077
L47S	0.074 ± 0.072
L47H	-0.072 ± 0.21
L47N	-0.014 ± 0.49
L47D	0.147 ± 0.14
L47K	-0.221 ± 0.38

Variant	abundance fitness
L47M	-0.162 ± 0.21
L47I	-0.16 ± 0.21
L47G	-0.027 ± 0.069
L47F	0.008 ± 0.2
L47W	0.048 ± 0.074
L47E	-0.12 ± 0.16
L47Q	0.084 ± 0.13
L47A	-0.037 ± 0.12
L47R	0.055 ± 0.058
L44I	0.048 ± 0.2
L44D	-0.93 ± 0.2
L44Q	-0.563 ± 0.25
L44G	-0.024 ± 0.057
L44H	-0.721 ± 0.26
L44A	0.006 ± 0.12
L44P	-1.04 ± 0.28
L44V	0.035 ± 0.1
L44F	-0.021 ± 0.16
L44R	-1.17 ± 0.18
L44Y	-0.073 ± 0.14
L44T	-0.03 ± 0.12
L44N	-0.938 ± 0.4
L44W	-0.414 ± 0.1
L44C	-0.093 ± 0.12

Variant	abundance fitness
N49T	-0.561 ± 0.19
N49S	-0.09 ± 0.082
N49I	-0.485 ± 0.21
N49Y	-0.03 ± 0.19
N49E	0.054 ± 0.11
N49M	0.008 ± 0.15
N49P	-0.182 ± 0.11
N49A	-0.109 ± 0.076
N49G	-0.074 ± 0.059
N49K	-0.086 ± 0.18
N49F	-0.135 ± 0.19
N49R	-0.107 ± 0.059
N49L	0.045 ± 0.094
N49Q	0.015 ± 0.12
R51P	-0.951 ± 0.19
R51K	-0.037 ± 0.17
R51Q	-0.132 ± 0.15
R51L	0.034 ± 0.075
R51V	0.025 ± 0.082
R51C	-0.023 ± 0.14
R51N	0.139 ± 0.21
R51T	0.056 ± 0.12
R51F	-0.147 ± 0.17
R51E	0.158 ± 0.14

Variant	abundance fitness
R51H	-0.122 ± 0.28
R51I	-0.321 ± 0.21
R51S	-0.039 ± 0.079
R51W	-0.471 ± 0.12
R51D	-0.027 ± 0.19
R51G	0.064 ± 0.079
R51Y	-0.108 ± 0.31
R51A	-0.024 ± 0.08
L56K	0.035 ± 0.13
L56H	0.13 ± 0.091
L56I	0.114 ± 0.15
L56Y	-0.207 ± 0.15
L56T	0.129 ± 0.11
L56M	0.279 ± 0.12
L56N	0.022 ± 0.28
L56R	0.086 ± 0.071
L56S	0.14 ± 0.071
L56W	0.017 ± 0.07
L56V	-0.027 ± 0.071
L56P	0.124 ± 0.092
L56A	0.056 ± 0.075
L56F	0.093 ± 0.17
L56G	0.016 ± 0.062
L56D	0.294 ± 0.2

Variant	abundance fitness
L56E	-0.024 ± 0.13
L56C	0.048 ± 0.12
L56Q	-0.054 ± 0.15
L57H	0.049 ± 0.4
L57R	-0.376 ± 0.11
L57K	-0.173 ± 0.3
L57W	-0.623 ± 0.13
L57T	-0.016 ± 0.17
L57Y	-0.13 ± 0.18
L57E	-0.91 ± 0.19
L57A	-0.071 ± 0.12
L57F	-0.194 ± 0.23
L57D	-0.971 ± 0.39
L57C	-0.029 ± 0.13
L57M	0.029 ± 0.25
P59F	-0.353 ± 0.22
P59H	-0.052 ± 0.24
P59M	-0.037 ± 0.13
P59C	0.011 ± 0.15
P59K	-0.118 ± 0.13
P59N	-0.027 ± 0.15
P59E	-0.005 ± 0.1
P59D	0.14 ± 0.15
P59L	-0.085 ± 0.082

Variant	abundance fitness
P59A	0.088 ± 0.092
P59I	-0.157 ± 0.38
P59G	0.065 ± 0.076
R53M	-0.045 ± 0.099
R53S	0.059 ± 0.092
R53I	-0.158 ± 0.18
R53C	-0.137 ± 0.15
R53G	0.015 ± 0.064
R53W	-0.266 ± 0.11
R53Y	0.026 ± 0.24
R53P	0.039 ± 0.091
R53V	-0.056 ± 0.088
R53E	-0.046 ± 0.1
R53K	0.038 ± 0.19
R53Q	0.085 ± 0.12
R53H	0.062 ± 0.25
R53A	0.068 ± 0.12
G40P	-0.077 ± 0.099
G40R	-0.142 ± 0.066
G40H	0.132 ± 0.32
G40I	-0.113 ± 0.11
G40L	-0.143 ± 0.066
G40Y	-0.104 ± 0.33
G40F	-0.031 ± 0.17

Variant	abundance fitness
G40N	-0.228 ± 0.14
G40A	-0.014 ± 0.08
G40E	0.076 ± 0.15
G40T	-0.041 ± 0.11
G40M	-0.13 ± 0.12
G40S	-0.021 ± 0.083
G40C	-0.039 ± 0.17
G40D	0.011 ± 0.11
G40Q	-0.053 ± 0.059
G40K	-0.187 ± 0.11
G40V	0.025 ± 0.08
S48D	0.138 ± 0.12
S48F	-0.124 ± 0.12
S48M	-0.166 ± 0.15
S48Q	-0.191 ± 0.17
S48K	-0.017 ± 0.15
S48Y	-0.194 ± 0.27
S48T	-0.134 ± 0.36
S48E	0.208 ± 0.14
S48R	-0.14 ± 0.073
S48V	-0.159 ± 0.078
S48L	-0.204 ± 0.087
S48G	-0.049 ± 0.065
S48C	0.009 ± 0.1

Variant	abundance fitness
S48I	-0.152 ± 0.15
W42Y	0.166 ± 0.13
W42L	-0.201 ± 0.061
W42S	-0.865 ± 0.1
W42I	-0.029 ± 0.2
W42R	-0.994 ± 0.092
W42P	-0.923 ± 0.25
W42G	-1.1 ± 0.1
W42A	-0.554 ± 0.1
W42H	-0.38 ± 0.15
W42N	-0.774 ± 0.28
W42D	-1 ± 0.47
W42M	-0.388 ± 0.099
W42Q	-0.969 ± 0.37
W42V	0.114 ± 0.069
W42T	-0.492 ± 0.15
W42E	-1.07 ± 0.25
W42C	-0.272 ± 0.082
W42F	-0.105 ± 0.12
G52T	-1.07 ± 0.3
G52E	-0.493 ± 0.073
G52A	-0.489 ± 0.072
G52R	-0.51 ± 0.093
G52N	-0.705 ± 0.31

Variant	abundance fitness
G52D	-0.775 ± 0.25
G52H	-0.43 ± 0.19
G52Q	-0.599 ± 0.23
G52F	-0.583 ± 0.47
G52C	-0.421 ± 0.12
G52S	-0.389 ± 0.08
G52L	-0.432 ± 0.1
G52M	-0.57 ± 0.23
G52W	-0.697 ± 0.11
G52V	-0.919 ± 0.13
G52I	-0.943 ± 0.32
G52K	-0.849 ± 0.27
Y45Q	-0.395 ± 0.19
Y45C	-0.273 ± 0.14
Y45S	-0.157 ± 0.089
Y45E	-1.04 ± 0.19
Y45M	-0.401 ± 0.13
Y45V	-0.88 ± 0.14
Y45G	-0.441 ± 0.061
Y45N	-0.507 ± 0.29
Y45D	-1.01 ± 0.24
Y45L	-0.708 ± 0.13
Y45R	-0.439 ± 0.072
Y45T	-0.07 ± 0.097

Variant	abundance fitness
Y45A	-0.347 ± 0.083
Y45H	-0.151 ± 0.19
Y45P	-0.553 ± 0.15
Q54A	-0.119 ± 0.093
Q54H	-0.117 ± 0.14
Q54P	-0.036 ± 0.094
Q54V	-0.193 ± 0.085
Q54T	0.035 ± 0.11
Q54Y	-0.119 ± 0.26
Q54R	-0.066 ± 0.12
Q54W	-0.39 ± 0.11
Q54I	-0.245 ± 0.17
Q54M	-0.261 ± 0.11
Q54S	0.013 ± 0.1
Q54G	-0.203 ± 0.12
Q54C	-0.206 ± 0.11
Q54L	-0.149 ± 0.11
Q54E	0.018 ± 0.14
Q54D	0.007 ± 0.19
Q54K	-0.052 ± 0.13
E46V	-0.325 ± 0.082
E46W	-0.783 ± 0.1
E46N	-0.343 ± 0.26
E46Q	-0.012 ± 0.11

Variant	abundance fitness
E46Y	-0.626 ± 0.42
E46G	-0.263 ± 0.068
E46S	-0.113 ± 0.1
E46M	-0.095 ± 0.15
E46C	-0.201 ± 0.1
E46P	-0.199 ± 0.096
E46F	-0.197 ± 0.17
E46T	-0.047 ± 0.099
E46A	-0.083 ± 0.086
E46H	-0.161 ± 0.23
E46R	-0.273 ± 0.068
Y55E	0.241 ± 0.1
Y55R	0.014 ± 0.081
Y55I	0.298 ± 0.22
Y55Q	-0.006 ± 0.14
Y55C	-0.061 ± 0.5
Y55V	0.082 ± 0.11
Y55G	0.017 ± 0.066
Y55K	0.087 ± 0.12
Y55L	0.107 ± 0.082
Y55F	-0.044 ± 0.18
Y55S	0.126 ± 0.12
Y55P	-1.07 ± 0.17
Y55W	-0.001 ± 0.11

Variant	abundance fitness
Y55D	-0.23 ± 0.18
Y55M	-0.039 ± 0.18
Y55H	-0.018 ± 0.27
Y55T	0.187 ± 0.14
S41D	-0.007 ± 0.14
S41H	-0.006 ± 0.17
S41K	0.045 ± 0.15
S41Q	0.022 ± 0.059
S41W	-0.207 ± 0.1
S41N	-0.175 ± 0.23
S41R	0.021 ± 0.077
S41A	-0.222 ± 0.079
S41V	-0.138 ± 0.095
S41T	-0.09 ± 0.088
S41I	-0.161 ± 0.27
S41P	-0.171 ± 0.097
S41L	-0.363 ± 0.1
S41F	-0.384 ± 0.14
S41Y	-0.078 ± 0.098
S41G	0.064 ± 0.062
S41E	0.076 ± 0.12
S41M	-0.285 ± 0.11
M58N	0.037 ± 0.17
M58T	0.125 ± 0.13

Variant	abundance fitness
M58C	0.074 ± 0.12
M58R	-0.02 ± 0.062
M58D	0.021 ± 0.13
M58L	0.015 ± 0.087
M58P	0.201 ± 0.11
M58H	0.008 ± 0.18
M58Y	0.174 ± 0.2
M58F	-0.073 ± 0.17
M58W	-0.118 ± 0.09
M58I	-0.047 ± 0.13
M58E	0.043 ± 0.11
M58V	0.032 ± 0.063
M58A	0.032 ± 0.065
M58Q	0.066 ± 0.12
M58G	0.093 ± 0.052
M58S	0.055 ± 0.072
Y50I	-0.658 ± 0.44
Y50Q	-0.197 ± 0.14
Y50C	-0.44 ± 0.24
Y50M	-0.144 ± 0.14
Y50R	-0.19 ± 0.081
Y50K	-0.234 ± 0.21
Y50L	-0.383 ± 0.075
Y50H	-0.052 ± 0.3

Variant	abundance fitness
Y50G	-0.231 ± 0.059
Y50S	-0.501 ± 0.13
Y50N	0.003 ± 0.16
Y50D	-0.693 ± 0.17
Y50A	-0.493 ± 0.094
Y50W	-0.283 ± 0.12
Y50V	-0.979 ± 0.19
E39I	-0.03 ± 0.22
E39C	-0.156 ± 0.12
E39L	-0.061 ± 0.079
E39D	-0.039 ± 0.17
E39H	0.165 ± 0.24
E39F	-0.262 ± 0.31
E39G	0.084 ± 0.075
E39K	-0.065 ± 0.14
E39R	0.016 ± 0.069
E39S	-0.024 ± 0.077
E39T	0.059 ± 0.11
E39Q	-0.084 ± 0.2
E39M	-0.054 ± 0.18
E39P	-0.78 ± 0.18
E39W	-0.176 ± 0.1
